The text below walks through data of publication PMC3050670.

Assay [1] concerns the target HIV-1 CA A14C/E45C (HIV-1 (human immunodeficiency virus type 1)). The assay can be described thus: cross-linking.
Assay [2] deals with HIV-1 CA A14C/E45C/W184A/M185A (HIV-1 (human immunodeficiency virus type 1)). Kind of assay: SEC.
The target in assay [3] is HIV-1 CA A42C/T54C (HIV-1 (human immunodeficiency virus type 1)). Kind of assay: cross-linking.
The target of assay [4] is HIV-1 CA N21C/A22C (HIV-1 (human immunodeficiency virus type 1)). Kind of assay: cross-linking.

One may read the stoichiometry N as the number of molecules, sites or subunits per partner or assembly. Regarding HIV-1 CA A14C/E45C (natural protein), in assay [1], the crosslinking efficiency was above 90% and the stoichiometry N came to 6.

With “HIV-1 CA A14C/E45C/W184A/M185A (natural protein)”, in assay [2], the stoichiometry N turned out to be 6. In assay [3], HIV-1 CA A42C/T54C (natural protein) came in with a crosslinked 6-mer band, share of the total protein of 30%; a maximal crosslinking of 50%; a stoichiometry N of 6. HIV-1 CA N21C/A22C (natural protein) gave a stoichiometry N in assay [4] of 5.
